System: MS2 coat protein
Experiment: apparent KD of MS2 coat protein; higher = weaker reporter binding
Conditions: Eterna round: R107
Protocol: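 RNA-MaP round R107: designed RNA switches with theophylline, tryptophan, arginine or FMN aptamers are transcribed on-chip within common flanks. They are titrated with SNAP-549-labelled MS2 coat protein in RNA-MaP buffer (100 mM Tris pH 7.5, 80 mM KCl, 4 mM MgCl2), without ligand or with the indicated ligand. Median apparent KD per design.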

[1] = input ligand: theophylline 20 uM
[2] = input ligand: tryptophan 2.4 mM
[3] = input ligand: theophylline 2 mM

Sequence	apparent KD of MS2 coat protein (input ligand: arginine 13.2 mM) [nM]	apparent KD of MS2 coat protein [1] [nM]	apparent KD of MS2 coat protein [2] [nM]	apparent KD of MS2 coat protein [3] [nM]	apparent KD of MS2 coat protein (input ligand: none) [nM]
AAUAAGUACUUUGAUACCAGCCUGCCAUCAUGCUAAUUUACAUGAGGAUCACCCAUGUUAGGCCCUUGGCAGCAAAGUGCAAUAA [XTheo B #1]	12.8	15.8	12.4	–	–
AAUACCGGAUCGGCCGCCACUGGUUGGCCCUGUGUACAUGAGGAUCACCCAUGUCCAUCCCAAGCCAGGACCGGGAUCUUUGUGU [Bedice]	17.1	24.9	–	18.5	–
AAUCAUAGGGCGGCCGCCACUAAACAUGAGGAUCACCCAUGUCUCGAGGGCUUGCGUUUGGGAAGUAGGACCGGGCCAAUAGUAA [Tryp B Ex Mod2]	18	23	16.1	17	19.1
AAUGAACAUGAGGAUCACCCAUGUCGUGAUACCAGCCGUAAGAGUGGCCCUUGGCAGCGCCAUGAGGACAACAACAUACAUGAGG [Same State Theophylline A]	22.9	29.7	24.8	–	–
AAUGAGUGGUGGUCAAGUGAUCCUCAUGAACGAGGACCGGUACGGCCGCCACUCGAUAACAUGAGGAUCACCCAUGUAAUAAUAA [|T'-M'-Trp-Ms2|_Design8]	15.6	18.9	–	22.4	–
AAUUAAAACUGAAGGAGCGUCGUGCGUGGGUGCGUCCCACAUGAGGAUCACCCAUGUGGUUGACAGGUAGGUCGCAGAAUAAUUU [Exclusion - Arginine B]	66.9	95.5	36.6	155	49.7
AAUUAAACAUCGGCCGCCACUUACUCAUGAGGUAACAACAUGAGGAUCACCCAUGUUUGAGGAUCAAGGACCGGGAUGUAAUAAU [AstrosSSTryB#2]	23.2	38.5	–	36.8	–
AAUUAUCACGGAAGGAGCGUCAUGAAAUUGAUACAUGAGGAUCACCCAUGUGAGUGUUAGAGACAGGUAGGUCGCCGAUUAUUGA [JR_AAArginiB_Sub028]	24.9	43.1	31	49.3	30.7
AAUUCCUCACAUGAGGAUCACCCAUGUGAAGGAGCGCCGAAUAAGGCAGGUAGGUCGCACAUGGAAACCUCUACGAAAGUAGUAA [XArg-A 3 NuV1V2]	16.5	20.8	15.6	18.2	15.8
AAUUUGUCGGGUGAUACCAGCCUCGGCGCAUCUCGCGCUGAACAUGAGGAUCACCCAUGUGGCCCUUGGCAGCACAUGACAAAUC [Veerdira]	153	587	757	–	–
ACAACAUGAGGCGAUACCAGAGGCAACAUGAGGAUCACCCAUGUUCACCCAUGUGAUCACCUCCCUUGGCAGCGCACAUGAGGAU [Same State - Theophylline B #1]	13.7	17	12.3	–	–
ACAUCCAGAUUAAUCGUGGGCAUACUCGAUACCAGUAUUUUAAUCUACCCUUGGCAGCGACAUGAGGAUCACCCAUGUGCGAUGA [XTheo A #11]	11.7	13.9	12.4	–	–
ACAUGAGGAUCACCCAUGUACAUGAGGGAAGGAGCGGUACAUGUGCCAGGUAGGUCGCCCAACAGCAUCAGCCAUGUACAACAGG [zqwmullin]	41.3	72.6	61	79.2	162
ACAUGAGGAUCACCCAUGUAGCCUAGGGAAGGAGCGUCGUAAGAGACAGGUAGGUCGCCCGCAUGUGAGUCAUCCAUGACGAGGG [#18 Same State - Arginine A]	25.7	30.1	21.1	23.6	25.9
ACAUGAGGAUCACCCAUGUGUCCUCGAAAACGAGGACCGGUACGGCCGCCACUCGAAAUAAGCUGUUGACGAAAAGUCAGCAGCA [Mat - Exclusion - Trytophan A - D21]	74.5	173	316	152	126
ACAUGAGGAUCACCCAUGUGUGUAAGUUCUCGAGGACCGGUACGGCCGCCACUCGAACGAGUGUAACGUUAUACUUAGUAUAAUG [SS Trp A s4]	22.6	21.3	11.4	15.2	11.4
